Assay results published in patent US20050282743A1, “Molecular interactions in cells” (Arbor Vita Corporation, priority 2001, published 2005).

T1: GST-AF6 PDZ domain 1 (Homo sapiens (Human)), P55196
T1 chain: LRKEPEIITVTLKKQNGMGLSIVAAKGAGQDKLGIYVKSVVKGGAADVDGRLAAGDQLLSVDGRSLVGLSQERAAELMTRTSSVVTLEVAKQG

T2: GST-FLJ 10324 PDZ domain 1 [GST: P08515]
T2 chain: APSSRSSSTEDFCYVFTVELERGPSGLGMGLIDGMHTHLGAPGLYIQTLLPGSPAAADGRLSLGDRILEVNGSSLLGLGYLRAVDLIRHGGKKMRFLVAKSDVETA

T3: GST-HEMBA 1003117 PDZ domain 1 (Homo sapiens (Human)), Q96JH8
T3 chain: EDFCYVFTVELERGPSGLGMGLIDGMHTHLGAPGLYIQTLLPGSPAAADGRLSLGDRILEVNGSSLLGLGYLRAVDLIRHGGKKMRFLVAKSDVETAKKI

T4: GST-MUPP1 PDZ domain 11 (Homo sapiens (Human)), O75970
T4 chain: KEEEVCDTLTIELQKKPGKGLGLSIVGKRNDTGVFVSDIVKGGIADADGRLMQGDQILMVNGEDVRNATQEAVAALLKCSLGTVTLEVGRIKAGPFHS

T5: GST-PTPL1 PDZ domain 4 (Homo sapiens (Human)), Q12923
T5 chain: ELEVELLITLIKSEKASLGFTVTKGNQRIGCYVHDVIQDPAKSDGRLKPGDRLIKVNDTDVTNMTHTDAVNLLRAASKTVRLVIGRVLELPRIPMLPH

T6: GST-TIP1 PDZ domain 1 (Table 9 insert) (Homo sapiens (Human)), O14907
T6 chain: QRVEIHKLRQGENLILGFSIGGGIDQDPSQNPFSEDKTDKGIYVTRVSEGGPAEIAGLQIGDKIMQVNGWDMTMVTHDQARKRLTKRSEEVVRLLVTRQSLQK

T7: GST-ZO-1 PDZ domain 1 (Rattus norvegicus (Rat)), A0A0G2
T7 chain: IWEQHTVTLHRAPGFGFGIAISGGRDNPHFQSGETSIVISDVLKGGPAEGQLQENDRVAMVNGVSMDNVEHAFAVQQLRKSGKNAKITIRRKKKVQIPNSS

T8: GST-ZO-2 PDZ domain 1 (Homo sapiens (Human)), Q9UDY2
T8 chain: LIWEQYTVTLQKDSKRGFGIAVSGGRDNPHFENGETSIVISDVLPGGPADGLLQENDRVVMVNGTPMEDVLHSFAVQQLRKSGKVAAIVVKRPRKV

T9: GST-APXL-1 PDZ domain 1 (Homo sapiens (Human)), Q13796
T9 chain: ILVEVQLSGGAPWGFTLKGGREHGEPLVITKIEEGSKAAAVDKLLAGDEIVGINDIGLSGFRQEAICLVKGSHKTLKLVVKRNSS

T10: GST-KIAA0807(S) PDZ domain 1 (Homo sapiens (Human)), Q6P0Q8
T10 chain: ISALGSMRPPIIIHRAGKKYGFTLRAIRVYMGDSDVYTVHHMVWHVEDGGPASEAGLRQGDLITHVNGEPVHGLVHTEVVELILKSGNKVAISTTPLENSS

T11: GST-MINT1 PDZ domain 2 (Mus musculus (Mouse)), B2RUJ5
T11 chain: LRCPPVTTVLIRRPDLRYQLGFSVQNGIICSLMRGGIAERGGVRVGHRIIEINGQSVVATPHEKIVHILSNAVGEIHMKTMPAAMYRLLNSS

T12: GST-MINT1 PDZ domains 1, 2, Q02410
T12 chain: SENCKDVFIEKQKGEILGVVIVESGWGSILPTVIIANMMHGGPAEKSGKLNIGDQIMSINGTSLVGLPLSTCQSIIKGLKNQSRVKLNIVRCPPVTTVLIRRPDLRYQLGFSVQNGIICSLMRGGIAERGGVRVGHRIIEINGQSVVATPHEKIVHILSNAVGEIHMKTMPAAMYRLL

T13: GST-MUPP1 PDZ domain 10 (Homo sapiens (Human)), O75970
T13 chain: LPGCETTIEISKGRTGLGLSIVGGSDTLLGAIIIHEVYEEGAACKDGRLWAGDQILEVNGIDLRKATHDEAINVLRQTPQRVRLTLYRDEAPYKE

T14: GST-X-11 beta PDZ domain 2 (Rattus norvegicus (Rat)), O35431
T14 chain: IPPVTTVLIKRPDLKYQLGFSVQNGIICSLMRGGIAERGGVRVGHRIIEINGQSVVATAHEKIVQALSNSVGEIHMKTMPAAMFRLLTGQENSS

T15: GST-ZO-1 PDZ domain 2 (Rattus norvegicus (Rat)), A0A0G2
T15 chain: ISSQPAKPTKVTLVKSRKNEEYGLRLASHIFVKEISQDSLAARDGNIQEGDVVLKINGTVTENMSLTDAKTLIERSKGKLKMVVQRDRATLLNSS

T16: GST-ZO-2 PDZ domain 2 (Homo sapiens (Human)), Q9UDY2
T16 chain: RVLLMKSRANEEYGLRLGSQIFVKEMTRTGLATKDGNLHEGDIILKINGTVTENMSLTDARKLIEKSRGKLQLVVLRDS

T17: GST-AIPC PDZ domain 1 (Homo sapiens (Human)), O15018
T17 chain: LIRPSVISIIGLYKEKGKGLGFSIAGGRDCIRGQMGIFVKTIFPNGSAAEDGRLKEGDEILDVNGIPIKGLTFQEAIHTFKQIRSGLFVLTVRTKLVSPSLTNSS

T18: GST-DLG1 PDZ domain 2 (Homo sapiens), Q12959
T18 chain: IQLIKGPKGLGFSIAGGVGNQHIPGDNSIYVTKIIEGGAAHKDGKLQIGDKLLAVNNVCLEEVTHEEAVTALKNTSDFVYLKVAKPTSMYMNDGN

T19: GST-INADL PDZ domain 8 (Homo sapiens (Human)), Q8NI35
T19 chain: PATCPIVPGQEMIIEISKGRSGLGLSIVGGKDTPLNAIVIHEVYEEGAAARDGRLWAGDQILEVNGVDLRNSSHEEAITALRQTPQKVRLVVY

T20: GST-KIAA1634 PDZ domain 2 (Homo sapiens (Human)), Q5TCQ9
T20 chain: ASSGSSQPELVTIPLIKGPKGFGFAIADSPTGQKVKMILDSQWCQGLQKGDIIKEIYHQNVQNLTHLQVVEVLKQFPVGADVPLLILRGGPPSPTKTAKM

T21: GST-MUPP1 PDZ domain 13 (Homo sapiens (Human)), O75970
T21 chain: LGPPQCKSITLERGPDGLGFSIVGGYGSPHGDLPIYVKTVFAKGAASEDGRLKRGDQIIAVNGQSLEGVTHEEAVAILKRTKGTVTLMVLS

T22: GST-NeDLG PDZ domain 2 (Rattus norvegicus (Rat)), Q62936
T22 chain: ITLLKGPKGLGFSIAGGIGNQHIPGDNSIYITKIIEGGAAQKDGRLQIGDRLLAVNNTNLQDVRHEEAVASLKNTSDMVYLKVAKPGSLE

T23: GST-NeDLG PDZ domains 1, 2, Q92796
T23 chain: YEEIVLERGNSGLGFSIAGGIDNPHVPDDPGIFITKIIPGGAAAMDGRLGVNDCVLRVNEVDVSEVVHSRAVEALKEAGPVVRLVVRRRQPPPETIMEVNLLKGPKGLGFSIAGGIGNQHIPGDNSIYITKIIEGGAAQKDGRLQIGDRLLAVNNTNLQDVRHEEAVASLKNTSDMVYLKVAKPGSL

T24: GST-Outer Membrane PDZ domain 1 (Homo sapiens (Human)), P57105
T24 chain: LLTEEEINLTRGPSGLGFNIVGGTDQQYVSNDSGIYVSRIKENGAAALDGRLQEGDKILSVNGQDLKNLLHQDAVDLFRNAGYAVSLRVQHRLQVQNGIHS

T25: GST-PTPL1 PDZ domain 2 (Homo sapiens (Human)), Q12923
T25 chain: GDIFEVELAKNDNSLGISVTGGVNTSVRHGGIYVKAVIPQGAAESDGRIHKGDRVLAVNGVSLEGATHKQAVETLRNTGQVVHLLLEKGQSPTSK

T26: GST-DLG2 PDZ domain 2 (Homo sapiens (Human)), Q15700
T26 chain: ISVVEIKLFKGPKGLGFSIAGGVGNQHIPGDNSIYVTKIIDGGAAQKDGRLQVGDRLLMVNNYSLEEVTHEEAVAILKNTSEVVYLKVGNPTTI

T27: GST-ENIGMA PDZ domain 1 (Homo sapiens (Human)), Q9NR12
T27 chain: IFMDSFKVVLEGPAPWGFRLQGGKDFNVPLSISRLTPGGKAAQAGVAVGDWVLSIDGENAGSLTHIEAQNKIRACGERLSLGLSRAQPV


Experiments:
Experiment in all cases: G' assay
[1] = target: T1, GST-AF6 PDZ domain 1 (Homo sapiens …)
[2] = target: GST-DLG1 PDZ domains 1, 2 (Homo sapiens), Q12959
[3] = target: T2, GST-FLJ 10324 PDZ domain 1 [GST: P08515]
[4] = target: T3, GST-HEMBA 1003117 PDZ domain 1 (Homo …)
[5] = target: T4, GST-MUPP1 PDZ domain 11 (Homo sapiens …)
[6] = target: GST-PIST PDZ domain 1 (Mus musculus (Mouse)), Q8BH60
[7] = target: T5, GST-PTPL1 PDZ domain 4 (Homo sapiens …)
[8] = target: T6, GST-TIP1 PDZ domain 1 (Table 9 insert) …
[9] = target: T7, GST-ZO-1 PDZ domain 1 (Rattus …)
[10] = target: T8, GST-ZO-2 PDZ domain 1 (Homo sapiens …)
[11] = target: T9, GST-APXL-1 PDZ domain 1 (Homo sapiens …)
[12] = target: GST-BAI-1 Associated Protein PDZ domain 4 (Homo sapiens (Human)), Q96QZ7
[13] = target: T10, GST-KIAA0807(S) PDZ domain 1 (Homo …)
[14] = target: GST-KIAA807 [GST: P08515]
[15] = target: T11, GST-MINT1 PDZ domain 2 (Mus musculus …)
[16] = target: T12, GST-MINT1 PDZ domains 1, 2, Q02410
[17] = target: T13, GST-MUPP1 PDZ domain 10 (Homo sapiens …)
[18] = target: T14, GST-X-11 beta PDZ domain 2 (Rattus …)
[19] = target: T15, GST-ZO-1 PDZ domain 2 (Rattus …)
[20] = target: T16, GST-ZO-2 PDZ domain 2 (Homo sapiens …)
[21] = target: T17, GST-AIPC PDZ domain 1 (Homo sapiens …)
[22] = target: GST-BAI-1 Associated Protein PDZ domain 2 (Mus musculus (Mouse)), Q6RHR9
[23] = target: GST-BAI-1 Associated Protein PDZ domain 5 (Homo sapiens (Human)), Q96QZ7
[24] = target: GST-DLG1 PDZ domain 1 (Homo sapiens), Q12959
[25] = target: T18, GST-DLG1 PDZ domain 2 (Homo sapiens), …
[26] = target: T19, GST-INADL PDZ domain 8 (Homo sapiens …)
[27] = target: GST-KIAA1634 PDZ domain 1 (Homo sapiens (Human)), Q5TCQ9
[28] = target: T20, GST-KIAA1634 PDZ domain 2 (Homo sapiens …)
[29] = target: T21, GST-MUPP1 PDZ domain 13 (Homo sapiens …)
[30] = target: T22, GST-NeDLG PDZ domain 2 (Rattus …)
[31] = target: T23, GST-NeDLG PDZ domains 1, 2, Q92796
[32] = target: T24, GST-Outer Membrane PDZ domain 1 (Homo …)
[33] = target: GST-PSD95 PDZ domain 1 (Homo sapiens)
[34] = target: GST-PSD95 PDZ domains 1, 2, 3 (Homo sapiens), P78352
[35] = target: T25, GST-PTPL1 PDZ domain 2 (Homo sapiens …)
[36] = target: T26, GST-DLG2 PDZ domain 2 (Homo sapiens …)
[37] = target: T27, GST-ENIGMA PDZ domain 1 (Homo sapiens …)
[38] = target: GST-KIAA0147 PDZ domain 1 (Homo sapiens (Human)), Q14160
Also: key of the grades not given here.

GST-KIAA807 [GST: P08515], sequence (P08515 whole entry, the tested form may be a part): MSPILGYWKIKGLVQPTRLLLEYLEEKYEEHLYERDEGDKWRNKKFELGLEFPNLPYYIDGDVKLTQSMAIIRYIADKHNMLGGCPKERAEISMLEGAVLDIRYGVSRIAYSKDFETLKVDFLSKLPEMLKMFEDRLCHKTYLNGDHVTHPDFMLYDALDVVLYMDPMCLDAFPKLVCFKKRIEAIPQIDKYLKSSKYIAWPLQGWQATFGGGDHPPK
GST-KIAA1634 PDZ domain 1 (Homo sapiens (Human)), Q5TCQ9, sequence (Q5TCQ9 401-502): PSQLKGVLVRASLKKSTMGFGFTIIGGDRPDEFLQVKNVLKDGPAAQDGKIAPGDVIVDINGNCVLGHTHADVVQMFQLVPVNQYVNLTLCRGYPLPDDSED
GST-PSD95 PDZ domains 1, 2, 3 (Homo sapiens), P78352, sequence (P78352 62-395): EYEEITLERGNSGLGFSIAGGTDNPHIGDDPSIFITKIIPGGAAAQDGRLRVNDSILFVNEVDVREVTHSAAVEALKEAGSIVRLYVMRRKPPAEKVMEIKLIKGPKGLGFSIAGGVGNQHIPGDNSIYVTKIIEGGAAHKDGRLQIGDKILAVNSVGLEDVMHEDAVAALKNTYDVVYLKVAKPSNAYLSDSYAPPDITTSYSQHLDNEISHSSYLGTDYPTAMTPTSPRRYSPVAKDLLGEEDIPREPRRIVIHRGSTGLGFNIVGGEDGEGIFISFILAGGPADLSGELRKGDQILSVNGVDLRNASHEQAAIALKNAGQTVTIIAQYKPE
GST-BAI-1 Associated Protein PDZ domain 5 (Homo sapiens (Human)), Q96QZ7, sequence (Q96QZ7 988-1099): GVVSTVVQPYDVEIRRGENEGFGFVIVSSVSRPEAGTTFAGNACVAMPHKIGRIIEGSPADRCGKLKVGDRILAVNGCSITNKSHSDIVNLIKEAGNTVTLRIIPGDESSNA
GST-BAI-1 Associated Protein PDZ domain 4 (Homo sapiens (Human)), Q96QZ7, sequence (Q96QZ7 other isoform, or with tags, fused parts or gaps): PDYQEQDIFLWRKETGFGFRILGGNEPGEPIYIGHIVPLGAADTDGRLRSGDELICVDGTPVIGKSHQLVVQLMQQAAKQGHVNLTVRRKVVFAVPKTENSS
GST-KIAA0147 PDZ domain 1 (Homo sapiens (Human)), Q14160, sequence (Q14160 other isoform, or with tags, fused parts or gaps): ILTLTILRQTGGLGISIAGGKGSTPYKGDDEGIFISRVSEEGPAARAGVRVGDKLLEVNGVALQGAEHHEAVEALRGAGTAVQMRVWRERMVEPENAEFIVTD
GST-BAI-1 Associated Protein PDZ domain 2 (Mus musculus (Mouse)), Q6RHR9, sequence (Q6RHR9 455-558): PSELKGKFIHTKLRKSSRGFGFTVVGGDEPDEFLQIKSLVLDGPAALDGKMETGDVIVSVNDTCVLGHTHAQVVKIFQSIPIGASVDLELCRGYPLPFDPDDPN

Classification [2] [A450 class] | Classification [3] [A450 class] | Classification [7] [A450 class] | Classification [11] [A450 class] | Classification [13] [A450 class] | Classification [14] [A450 class] | Classification [16] [A450 class] | Classification [17] [A450 class] | Classification [21] [A450 class] | Classification [25] [A450 class] | Classification [27] [A450 class] | Classification [31] [A450 class] | Classification [34] [A450 class] | Classification [37] [A450 class] | Binder | other results
1 | 1 | 1 |  |  |  |  |  |  |  |  |  |  |  | GPVPGEPAKPKTSAHHATFV (modifications not checked) [RGS12 (regulator of G-protein signaling 12] | Classification [1]: 1 A450 class; Classification [4]: 1 A450 class; Classification [5]: 1 A450 class; Classification [6]: 1 A450 class; Classification [8]: 1 A450 class; Classification [9]: 1 A450 class; Classification [10]: 1 A450 class
 |  | 1 | 1 | 1 | 1 | 1 | 1 |  |  |  |  |  |  | NGGFAVDKSDTISFTQTSQF (modifications not checked) [glutamate transporter 3] | Classification [12]: 1 A450 class; Classification [15]: 1 A450 class; Classification [18]: 1 A450 class
 |  |  |  |  |  |  |  |  |  |  |  |  |  | PSSRASSRASSRPRPDDLEI (modifications not checked) [CX43 (connexin 43)] | Classification [19]: 2 A450 class; Classification [20]: 1 A450 class
 | 1 |  |  |  | 1 | 1 | 1 | 1 | 1 | 1 | 2 | 2 |  | ISGTPTSTMVHGMTSSSSVV (modifications not checked) [Clasp-2] | Classification [22]: 1 A450 class; Classification [23]: 1 A450 class; Classification [24]: 1 A450 class; Classification [26]: 1 A450 class; Classification [28]: 1 A450 class; Classification [29]: 1 A450 class; Classification [30]: 1 A450 class; Classification [32]: 1 A450 class; Classification [33]: 1 A450 class; Classification [35]: 1 A450 class
2 |  |  |  | 1 |  |  |  | 2 | 1 | 4 | 2 | 2 | 1 | GGGGGSGGGGGSGIESVKI (modifications not checked) [GLUR2 (glutamate receptor 2-modified)] | Classification [36]: 1 A450 class; Classification [38]: 1 A450 class
 |  |  | 1 |  |  |  |  |  |  |  |  |  | 1 | EVIGYIEKPGVETLEDSVF (modifications not checked) [CDW125 (modified)] | 
